Measurements reported in PMC9814759, “Enzymatic kinetic resolution of desmethylphosphinothricin indicates that phosphinic group is a bioisostere of carboxyl group” (Communications Chemistry, 2020).

What was measured:
[1] = substrate: N[C@@H](CCC(=O)O)C(=O)O; test: purified protein; assay type: biochemical, Escherichia coli; settings: 0.1 M Pyridine/HCl, pH 4.6, 0.1 mM DTT, 40 µM PLP, discontinuous assay
[2] = substrate: N[C@@H](CC[PH](=O)O)C(=O)O; test: purified protein; assay type: biochemical, Escherichia coli; settings: 0.1 M Pyridine/HCl, pH 4.6, 0.1 mM DTT, 40 µM PLP, discontinuous assay

B1: EcGadB (Escherichia coli K-12) (protein)
chain: MDKKQVTDLRSELLDSRFGAKSISTIAESKRFPLHEMRDDVAFQIINDELYLDGNARQNLATFCQTWDDENVHKLMDLSINKNWIDKEEYPQSAAIDLRCVNMVADLWHAPAPKNGQAVGTNTIGSSEACMLGGMAMKWRWRKRMEAAGKPTDKPNLVCGPVQICWHKFARYWDVELREIPMRPGQLFMDPKRMIEACDENTIGVVPTFGVTYTGNYEFPQPLHDALDKFQADTGIDIDMHIDAASGGFLAPFVAPDIVWDFRLPRVKSISASGHKFGLAPLGCGWVIWRDEEALPQELVFNVDYLGGQIGTFAINFSRPAGQVIAQYYEFLRLGREGYTKVQNASYQVAAYLADEIAKLGPYEFICTGRPDEGIPAVCFKLKDGEDPGYTLYDLSERLRLRGWQVPAFTLGGEATDIVVMRIMCRRGFEMDFAELLLEDYKASLKYLSDHPKLQGIAQQNSFKHT
notes: expressed and purified EcGadB (DEAE chromatography); no tag stated; PLP-dependent homohexamer; EC 4.1.1.15
With B1 the Km [1] was 0.84 ± 0.09 mM, the kcat [1] was 78.2 ± 2.06 s⁻¹ and the kcat/Km [1] was 92800 ± 10300 M⁻¹ s⁻¹. For the same protein, the Km [2] was 39.82 ± 5.66 mM, the kcat [2] was 13.9 ± 0.58 s⁻¹ and the kcat/Km [2] was 350 ± 50 M⁻¹ s⁻¹.
